Consider two molecules from patent CN116496388A (BRAVOVAX CO LTD; SHANGHAI BOWO BIOTECHNOLOGY CO LTD, dated 2023).

For assay [1], the target named is T1, 野生型人5型腺病毒的Hexon蛋白 (人5型腺病毒 (human adenovirus type 5), UniProt P04133 2-952).
T1 construct: also called 野生型人腺病毒5型
Kind of assay: Western blot, reduced virus lysate.

In assay [2] the target is T1, 野生型人5型腺病毒的Hexon蛋白. Kind of assay: cell immunostaining of virus-infected 293A cells.

T1 sequence (P04133 2-952): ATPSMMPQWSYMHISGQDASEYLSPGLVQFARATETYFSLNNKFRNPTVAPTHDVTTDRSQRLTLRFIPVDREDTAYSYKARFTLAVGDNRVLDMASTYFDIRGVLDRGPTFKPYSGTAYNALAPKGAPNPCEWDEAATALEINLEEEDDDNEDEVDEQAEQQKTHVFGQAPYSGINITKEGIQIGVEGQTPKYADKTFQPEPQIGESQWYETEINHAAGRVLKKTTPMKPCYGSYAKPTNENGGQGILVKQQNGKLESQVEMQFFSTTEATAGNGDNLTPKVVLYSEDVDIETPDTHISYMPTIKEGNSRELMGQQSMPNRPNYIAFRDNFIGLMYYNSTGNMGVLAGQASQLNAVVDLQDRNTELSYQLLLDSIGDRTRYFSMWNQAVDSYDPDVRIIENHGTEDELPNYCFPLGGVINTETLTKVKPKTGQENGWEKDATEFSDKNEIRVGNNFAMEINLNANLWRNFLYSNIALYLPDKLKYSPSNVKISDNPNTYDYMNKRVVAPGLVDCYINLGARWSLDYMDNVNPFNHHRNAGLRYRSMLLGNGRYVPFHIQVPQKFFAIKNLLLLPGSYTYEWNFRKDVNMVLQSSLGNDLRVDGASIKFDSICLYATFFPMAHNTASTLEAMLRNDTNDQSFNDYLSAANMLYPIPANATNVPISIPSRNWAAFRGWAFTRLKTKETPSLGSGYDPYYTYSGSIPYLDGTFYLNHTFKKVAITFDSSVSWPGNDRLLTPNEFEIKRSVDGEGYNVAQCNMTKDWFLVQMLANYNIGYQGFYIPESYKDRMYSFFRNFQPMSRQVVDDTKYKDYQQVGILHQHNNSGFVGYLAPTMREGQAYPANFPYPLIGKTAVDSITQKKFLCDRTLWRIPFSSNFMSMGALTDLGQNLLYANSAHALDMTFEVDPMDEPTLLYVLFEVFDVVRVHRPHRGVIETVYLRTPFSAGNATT

B1: AdC68-Hexon单克隆抗体 (hybridoma-derived, purified from mouse ascites) (antibody, V domains shown)
VH: EVQLVETGGGLVQPKGSLKLSCAVSGLPFNTKAMDWVRQAPGEGLEWVARIRTKSNNYATYYADSVKDRFTISRDDAQSMLYLQMTNLKTEDTAMYYCVRDEASWGHGTLVTVSA
VL: DIVMTQIPLSLPVSLGDQASISCRSSQSLVHSDGNTYLHWYLQKPGQSPKLLIYKVSNRFSGVPDRFSGSGSGTDFTLKISRVEAEDLGVYFCSQSTHFPWTFGGGTKLEIK
notes: Mouse IgG1 (all positive hybridomas were IgG1); also called 抗AdC68-Hexon单克隆抗体; 亲本鼠源抗体
With B1, the binding result with 野生型人5型腺病毒的Hexon蛋白 [1] was “no binding (tested: antibody diluted 1:10000)”.

B2: 重组抗AdC68-Hexon小鼠单克隆抗体 (antibody, V domains shown)
VH: EVQLVETGGGLVQPKGSLKLSCAVSGLPFNTKAMDWVRQAPGEGLEWVARIRTKSNNYATYYADSVKDRFTISRDDAQSMLYLQMTNLKTEDTAMYYCVRDEASWGHGTLVTVSA
VL: DIVMTQIPLSLPVSLGDQASISCRSSQSLVHSDGNTYLHWYLQKPGQSPKLLIYKVSNRFSGVPDRFSGSGSGTDFTLKISRVEAEDLGVYFCSQSTHFPWTFGGGTKLEIKR
notes: domain: 小鼠IgGκ轻链恒定区; Expressed in HEK293, assembled as IgG1k, Protein A purified; also called 重组单克隆抗体; 重组抗AdC68-Hexon鼠单克隆抗体; not shown: mouse IgG1 heavy chain constant region (IgG1CH, GenBank No. NC_000078.7, a genomic entry)
Regarding B2, the binding result with 野生型人5型腺病毒的Hexon蛋白 [2] is given as “no binding”.
